This assay deals with T1, ヒトTFPI (human tissue factor pathway inhibitor; American Diagnostica) (human, UniProt P10646 29-304, limits assumed).
T1 construct: Coated on plates (ELISA) or amine-coupled to a CM5 chip (Biacore); also called h-TFPI; hTFPI
T1 sequence (looked up): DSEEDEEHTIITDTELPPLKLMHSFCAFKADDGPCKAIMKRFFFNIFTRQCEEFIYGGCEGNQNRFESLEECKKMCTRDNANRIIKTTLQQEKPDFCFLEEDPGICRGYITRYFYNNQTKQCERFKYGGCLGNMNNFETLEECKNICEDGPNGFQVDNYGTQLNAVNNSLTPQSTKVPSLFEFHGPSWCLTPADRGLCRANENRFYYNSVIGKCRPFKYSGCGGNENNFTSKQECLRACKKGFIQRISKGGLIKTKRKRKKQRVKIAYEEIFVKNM
The experiment in a line: ELISA, Fab in bacterial lysate on coated human TFPI. (In general: In an ELISA, binding on a coated surface is turned into a signal by an enzyme label.)

B1: TP-3A4 (Fab, V domains shown)
VH: QVQLVESGGGLVQPGGSLRLSCAASGFTFSSYWMHWVRQAPGKGLEWVSSISYDSSNTYYADSVKGRFTISRDNSKNTLYLQMNSLRAEDTAVYYCARYGGMDYWGQGTLVTVSS
VL: DIELTQPPSVSVAPGQTARISCSGDNLRDKYASWYQQKPGQAPVLVIYSKSERPSGIPERFSGSNSGNTATLTISGTQAEDEADYYCSSYTLNPNLNYVFGGGTKLTVLG
notes: HuCAL Gold human Fab from E. coli TG1
On to B1, for which the binding result is reported as “binds”.

B2: TP-3A3 (Fab, V domains shown)
VH: QVQLVESGGGLVQPGGSLRLSCAASGFTFNNNAISWVRQAPGKGLEWVSAINSSSSSTSYADSVKGRFTISRDNSKNTLYLQMNSLRAEDTAVYYCARGHHRGHSWASFIDYWGQGTLVTVSS
VL: DIELTQPPSVSVAPGQTARISCSGDNIGSKYVHWYQQKPGQAPVVVIYEDSDRPSGIPERFSGSNSGNTATLTISGTQAEDEADYYCQSWDKSEGYVFGGGTKLTVLG
notes: as for B1
For the molecule B2, the binding result is recorded as “binds”.

B3: TP-2C1 (Fab, V domains shown)
VH: QVQLVESGGGLVQPGGSLRLSCAASGFTFSPYVMSWVRQAPGKGLEWVSSISSSSSNTYYADSVKGRFTISRDNSKNTLYLQMNSLRAEDTAVYYCARGDSYMYDVWGQGTLVTVSS
VL: DIELTQPPSVSVAPGQTARISCSGDSIGSYYAHWYQQKPGQAPVLVIYYDSKRPSGIPERFSGSNSGNTATLTISGTQAEDEADYYCQAYTGQSISRVFGGGTKLTVLG
notes: as for B1
For B3, the binding result is “binds”.

B4: TP-2G9 (Fab, V domains shown)
VH: QVQLVESGGGLVQPGGSLRLSCAASGFTFNSYAMTWVRQAPGKGLEWVSAIKSDGSNTYYADSVKGRFTISRDNSKNTLYLQMNSLRAEDTAVYYCARNDSGWFDVWGQGTLVTVSS
VL: DIALTQPASVSGSPGQSITISCTGTSSDLGGFNTVSWYQQHPGKAPKLMIYSVSSRPSGVSNRFSGSKSGNTASLTISGLQAEDEADYYCQSYDLNNLVFGGGTKLTVLG
notes: as for B1
B4: the binding result was “binds”.

B5: TP-2G4 (Fab, V domains shown)
VH: QVQLVESGGGLVQPGGSLRLSCAASGFTFSSYAMTWVRQAPGKGLEWVSNISYSGSNTYYADSVKGRFTISRDNSKNTLYLQMNSLRAEDTAVYYCARVGYYYGFDYWGQGTLVTVSS
VL: DIELTQPPSVSVAPGQTARISCSGDALRKHYVYWYQQKPGQAPVLVIYGDNNRPSGIPERFSGSNSGNTATLTISGTQAEDEADYYCQSYDKPYPILVFGGGTKLTVLG
notes: as for B1
In the case of B5, the binding result is recorded as “binds”.

B6: TP-2D7 (Fab, V domains shown)
VH: QVQLQQSGPGLVKPSQTLSLTCAISGDSVSSNSAAWGWIRQSPGRGLEWLGLIYYRSKWYNDYAVSVKSRITINPDTSKNQFSLQLNSVTPEDTAVYYCARFGDTNRNGTDVWGQGTLVTVSS
VL: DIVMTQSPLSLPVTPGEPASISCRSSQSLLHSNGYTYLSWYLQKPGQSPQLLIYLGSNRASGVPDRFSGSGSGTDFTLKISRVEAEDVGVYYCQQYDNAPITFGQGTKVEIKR
notes: as for B1
B6: the binding result is “binds”.

B7: TP-2G2 (Fab, V domains shown)
VH: QVQLVESGGGLVQPGGSLRLSCAASGFTFSSYAMNWVRQAPGKGLEWVSAILSDGSSTSYADSVKGRFTISRDNSKNTLYLQMNSLRAEDTAVYYCARYPDWGWYTDVWGQGTLVTVSS
VL: DIELTQPPSVSVAPGQTARISCSGDNIRKFYVHWYQQKPGQAPVLVIYGTNKRPSGIPERFSGSNSGNTATLTISGTQAEDEADYYCQSYDSKFNTVFGGGTKLTVLG
notes: as for B1
On to B7, for which the binding result was “binds”.

B8: TP-3A2 (Fab, V domains shown)
VH: QVQLVESGGGLVQPGGSLRLSCAASGFTFSNYYLSWVRQAPGKGLEWVSGISYNGSSTNYADSVKGRFTISRDNSKNTLYLQMNSLRAEDTAVYYCARMWRYSLGADSWGQGTLVTVSS
VL: DIELTQPPSVSVAPGQTARISCSGDNIGSRYAYWYQQKPGQAPVVVIYDDSDRPSGIPERFSGSNSGNTATLTISGTQAEDEADYYCAAYTFYARTVFGGGTKLTVLG
notes: as for B1
For B8, the binding result was “binds”.

B9: TP-2E5 (Fab, V domains shown)
VH: QVQLQQSGPGLVKPSQTLSLTCAISGDSVSSNSAAWSWIRQSPGRGLEWLGMIFYRSKWNNDYAVSVKSRITINPDTSKNQFSLQLNSVTPEDTAVYYCARVNANGYYAYVDLWGQGTLVTVSS
VL: DIQMTQSPSSLSASVGDRVTITCRASQPIYNSLSWYQQKPGKAPKLLIYGVSNLQSGVPSRFSGSGSGTDFTLTISSLQPEDFAVYYCLQVDNLPITFGQGTKVEIKR
notes: as for B1
In the case of B9, the binding result is recorded as “binds”.

B10: TP-2A2 (Fab, V domains shown)
VH: QVQLVESGGGLVQPGGSLRLSCAASGFTFSNNAMNWVRQAPGKGLEWVSTISYDGSNTYYADSVKGRFTISRDNSKNTLYLQMNSLRAEDTAVYYCARQAGGWTYSYTDVWGQGTLVTVSS
VL: DIELTQPPSVSVAPGQTARISCSGDNIRTYYVHWYQQKPGQAPVVVIYGDSKRPSGIPERFSGSNSGNTATLTISGTQAEDEADYYCQSYDSEADSEVFGGGTKLTVLG
notes: as for B1
For the molecule B10, the binding result was “binds”.

B11: TP-2G7 (Fab, V domains shown)
VH: QVQLVESGGGLVQPGGSLRLSCAASGFTFNSYAMSWVRQAPGKGLEWVSNISSNSSNTYYADSVKGRFTISRDNSKNTLYLQMNSLRAEDTAVYYCARKGGGEHGFFPSDIWGQGTLVTVSS
VL: DIELTQPPSVSVAPGQTARISCSGDNLGTYYVHWYQQKPGQAPVLVIYGDNNRPSGIPERFSGSNSGNTATLTISGTQAEDEADYYCQTYDSNNESIVFGGGTKLTVLG
notes: as for B1
B11: the binding result is recorded as “binds”.

B12: TP-2B9 (Fab, V domains shown)
VH: QVQLQQSGPGLVKPSQTLSLTCAISGDSVSSNSAAWGWIRQSPGRGLEWLGMIYHRSKWYNDYAVSVKSRITINPDTSKNQFSLQLNSVTPEDTAVYYCARYSSIGHMDYWGQGTLVTVSS
VL: DIQMTQSPSSLSASVGDRVTITCRASQSIRSYLAWYQQKPGKAPKLLIYKASNLQSGVPSRFSGSGSGTDFTLTISSLQPEDFAVYYCHQYSDSPVTFGQGTKVEIKR
notes: as for B1
On to B12, for which the binding result is listed as “binds”.

B13: TP-2E3 (Fab, V domains shown)
VH: QVQLQQSGPGLVKPSQTLSLTCAISGDSVSSNSAAWGWIRQSPGRGLEWLGMIYYRSKWYNDYAVSVKSRITINPDTSKNQFSLQLNSVTPEDTAVYYCARVNQYTSSDYWGQGTLVTVSS
VL: DIALTQPASVSGSPGQSITISCTGTSSDIGGYNYVSWYQQHPGKAPKLMIYGVNYRPSGVSNRFSGSKSGNTASLTISGLQAEDEADYYCSSADKFTMSIVFGGGTKLTVLG
notes: as for B1
Regarding B13, the binding result is on record as “binds”.

B14: TP-2G5 (Fab, V domains shown)
VH: QVQLQQSGPGLVKPSQTLSLTCAISGDSVSSNSAAWSWIRQSPGRGLEWLGFIYYRSKWYNDYAVSVKSRITINPDTSKNQFSLQLNSVTPEDTAVYYCARHNPDLGFDYWGQGTLVTVSS
VL: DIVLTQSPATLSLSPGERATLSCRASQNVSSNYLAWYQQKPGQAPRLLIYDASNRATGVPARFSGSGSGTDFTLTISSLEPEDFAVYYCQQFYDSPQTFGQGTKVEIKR
notes: as for B1
In the case of B14, the binding result is “binds”.

B15: TP-2H10 (Fab, V domains shown)
VH: QVQLQQSGPGLVKPSQTLSLTCAISGDSVSSNGAAWGWIRQSPGRGLEWLGFIYRRSKWYNSYAVSVKSRITINPDTSKNQFSLQLNSVTPEDTAVYYCARQDGMGGMDSWGQGTLVTVSS
VL: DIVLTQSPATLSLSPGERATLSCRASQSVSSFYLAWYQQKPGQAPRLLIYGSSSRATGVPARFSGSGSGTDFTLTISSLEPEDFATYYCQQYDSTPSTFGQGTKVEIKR
notes: as for B1
B15: the binding result is “binds”.

B16: TP-2F9 (Fab, V domains shown)
VH: QVQLVESGGGLVQPGGSLRLSCAASGFTFYKYAMHWVRQAPGKGLEWVSGIQYDGSYTYYADSVKGRFTISRDNSKNTLYLQMNSLRAEDTAVYYCARYYCKCVDLWGQGTLVTVSS
VL: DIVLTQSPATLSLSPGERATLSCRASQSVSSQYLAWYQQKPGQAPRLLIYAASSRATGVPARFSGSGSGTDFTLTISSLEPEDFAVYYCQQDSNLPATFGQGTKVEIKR
notes: as for B1
As to B16, the binding result is given as “binds”.

For the origin of these results see patent JP2017222678A (dated 2017).
